Biological target: TAG-72 antigen (tumor-associated glycoprotein 72) (human)
Assay: competition RIA against 125I-labeled CC49 IgG (competitor), TAG-72 in a human breast carcinoma extract

Substance: CC49/212 single-chain antigen-binding protein (monomer) (scFv)
- fold higher protein concentration needed to displace the labeled CC49 IgG (against unlabeled CC49 IgG and bivalent CC49/212): 10 fold

From patent US20060063715A1
